Source: article PMC8934283 (Nature, 2022)

Experiments:
Experiment in all cases: cryo-EM structure
[1] = target: ribosomal protein uS3 (E. coli, UniProt P0A7V3 1-233)
[2] = target: ribosomal protein uS21 (E. coli, UniProt P68679 1-71)
[3] = target: ribosomal protein uS5 (E. coli, UniProt P0A7W1 1-166)
[4] = target: ribosomal protein uS11 (E. coli, UniProt P0A7R9 1-129)
[5] = target: ribosomal protein uS2 (E. coli, UniProt P0A7V0 1-241)

Measured: binding result

B1: E. coli SmrB inactive mutant (99DLH101-ALA) (enzyme)
chain: MKKKTTLSEEDQALFRQLMAGTRKIKQDTIVHRPQRKKISEVPVKRLIQEQADASHYFSDEFQPLLNTEGPVKYVRPDVSHFEAKKLRRGDYSPELFLALAGLTQLQAKQELGALIAACRREHVFCACVMHGHGKHILKQQTPLWLAQHPHVMAFHQAPKEYGGDAALLVLIEVEEWLPPEL
binds: all assays above
